Source: US20250057881A1 (ROSWELL PARK CANCER INSTITUTE, published 2025)

Molecular target: T1, HLA-A*02:01 (human)
T1 construct: also called HLA-A2; A2
Assay: peptide loaded on Flex-T HLA-A*02:01 monomer by UV exchange; the resulting tetramer stained TCR-transduced T cells
From the text: HLA-A2-binding epitope of CLDN6 between CLDN6₁₃₁₋₁₄₀ was predicted using […] database. […] (CLDN6₁₃₂₋₁₄₀) (SEQ ID NO:18) peptide was synthesized by EZBiolab with 82% purity. HLA-A2/peptide monomer was generated with Flex-T HLA-A*02:01 monomer UVX followed by tetramerization using PE-streptavidin according to the manufacturer's instruction (BioLegend). CD8-TCR-or mock-transduced cells were stained with the tetramer followed by anti-CD8 antibody.

binding result: binds
B1: CLDN6132-140 peptide (peptide)
peptide: TLIPVCWTA
notes: Synthetic peptide, 82% purity
